Assay results reported in patent publication US12460006B2, “Antibodies against integrin alpha 11 beta 1” (Momenta Pharmaceuticals, Inc., priority 2019, dated 2025).

T1: α11β1 expressed on the surface of CHO-K1 cells (Homo sapiens, UniProt Q9UKX5)
T1 construct: expressed in transfected cells; host or cells: CHO-K1
T1 sequence (Q9UKX5 23-1188): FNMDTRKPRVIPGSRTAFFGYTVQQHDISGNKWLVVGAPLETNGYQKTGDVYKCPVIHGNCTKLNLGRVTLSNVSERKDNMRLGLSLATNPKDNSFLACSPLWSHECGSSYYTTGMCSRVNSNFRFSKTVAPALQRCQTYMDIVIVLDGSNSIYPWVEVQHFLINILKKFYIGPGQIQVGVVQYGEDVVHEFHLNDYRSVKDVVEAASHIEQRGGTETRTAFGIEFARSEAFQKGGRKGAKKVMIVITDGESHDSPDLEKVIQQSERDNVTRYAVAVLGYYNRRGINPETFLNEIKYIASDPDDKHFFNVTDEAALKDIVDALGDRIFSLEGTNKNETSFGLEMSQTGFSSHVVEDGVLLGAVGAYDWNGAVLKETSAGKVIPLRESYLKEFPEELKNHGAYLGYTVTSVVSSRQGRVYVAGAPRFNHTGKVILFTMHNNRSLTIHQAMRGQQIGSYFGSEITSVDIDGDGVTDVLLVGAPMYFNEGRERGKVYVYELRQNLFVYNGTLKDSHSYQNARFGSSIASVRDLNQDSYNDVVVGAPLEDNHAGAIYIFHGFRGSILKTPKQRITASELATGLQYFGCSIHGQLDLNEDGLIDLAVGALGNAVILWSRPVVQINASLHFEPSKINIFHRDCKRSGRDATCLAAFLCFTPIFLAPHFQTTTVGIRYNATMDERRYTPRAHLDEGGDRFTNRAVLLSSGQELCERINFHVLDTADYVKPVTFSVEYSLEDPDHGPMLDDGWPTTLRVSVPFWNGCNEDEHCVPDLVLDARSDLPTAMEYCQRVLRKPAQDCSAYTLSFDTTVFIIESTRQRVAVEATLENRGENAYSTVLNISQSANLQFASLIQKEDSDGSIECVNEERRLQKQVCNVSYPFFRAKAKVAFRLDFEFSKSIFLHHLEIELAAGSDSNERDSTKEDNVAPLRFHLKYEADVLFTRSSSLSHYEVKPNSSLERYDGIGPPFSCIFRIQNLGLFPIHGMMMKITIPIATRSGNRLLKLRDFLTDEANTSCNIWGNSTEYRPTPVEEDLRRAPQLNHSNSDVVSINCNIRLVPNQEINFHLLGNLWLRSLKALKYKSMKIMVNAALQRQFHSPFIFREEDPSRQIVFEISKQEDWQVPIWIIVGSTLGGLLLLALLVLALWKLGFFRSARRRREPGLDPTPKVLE


Columns and labels:
[1] = target: mouse α11β1 (Mus musculus, UniProt P61622); experiment: ELISA binding to recombinant mouse α11β1; details: binding Yes/No
How it was run: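 Antibody binding read at 450 nm after TMB development, using biotinylated anti-rabbit/mouse/human IgG then streptavidin-HRP. Antibody dilution series incubated 1 h at room temperature on BSA-blocked plates coated overnight at 4 °C with 0.25 μg/mL human or mouse α11β1.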

[2] = tested on: α1β1, α2β1 and/or α10β1; experiment: Counter-screen for cross-reactivity to other collagen receptors; format: binding, human; details: cross-reactivity to α1β1, α2β1, α10β1
How it was run: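 Cross-reactivity was checked by ELISA counter-screen on human α1β1, α2β1 and α10β1. Tested material was hybridoma clones from rats or mice immunized with α11β1, previously selected for binding to soluble human and mouse α11β1.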

[3] = target: T1, α11β1 expressed on the surface of CHO-K1 cells; experiment: FACS antibody binding to CHO-K1 cells expressing human α11; details: binding Yes/No
How it was run: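 Wild-type or human α11-transfected CHO-K1 cells (endogenous β1) were incubated with antibody at varied concentrations for 30 min at 4° C, then secondary antibody (1:100) 30 min at 4° C. Cells were PFA-fixed and read by flow cytometry; binding EC50 estimated from FACS data.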

Chain of mouse α11β1 (P61622 23-1141 limits assumed): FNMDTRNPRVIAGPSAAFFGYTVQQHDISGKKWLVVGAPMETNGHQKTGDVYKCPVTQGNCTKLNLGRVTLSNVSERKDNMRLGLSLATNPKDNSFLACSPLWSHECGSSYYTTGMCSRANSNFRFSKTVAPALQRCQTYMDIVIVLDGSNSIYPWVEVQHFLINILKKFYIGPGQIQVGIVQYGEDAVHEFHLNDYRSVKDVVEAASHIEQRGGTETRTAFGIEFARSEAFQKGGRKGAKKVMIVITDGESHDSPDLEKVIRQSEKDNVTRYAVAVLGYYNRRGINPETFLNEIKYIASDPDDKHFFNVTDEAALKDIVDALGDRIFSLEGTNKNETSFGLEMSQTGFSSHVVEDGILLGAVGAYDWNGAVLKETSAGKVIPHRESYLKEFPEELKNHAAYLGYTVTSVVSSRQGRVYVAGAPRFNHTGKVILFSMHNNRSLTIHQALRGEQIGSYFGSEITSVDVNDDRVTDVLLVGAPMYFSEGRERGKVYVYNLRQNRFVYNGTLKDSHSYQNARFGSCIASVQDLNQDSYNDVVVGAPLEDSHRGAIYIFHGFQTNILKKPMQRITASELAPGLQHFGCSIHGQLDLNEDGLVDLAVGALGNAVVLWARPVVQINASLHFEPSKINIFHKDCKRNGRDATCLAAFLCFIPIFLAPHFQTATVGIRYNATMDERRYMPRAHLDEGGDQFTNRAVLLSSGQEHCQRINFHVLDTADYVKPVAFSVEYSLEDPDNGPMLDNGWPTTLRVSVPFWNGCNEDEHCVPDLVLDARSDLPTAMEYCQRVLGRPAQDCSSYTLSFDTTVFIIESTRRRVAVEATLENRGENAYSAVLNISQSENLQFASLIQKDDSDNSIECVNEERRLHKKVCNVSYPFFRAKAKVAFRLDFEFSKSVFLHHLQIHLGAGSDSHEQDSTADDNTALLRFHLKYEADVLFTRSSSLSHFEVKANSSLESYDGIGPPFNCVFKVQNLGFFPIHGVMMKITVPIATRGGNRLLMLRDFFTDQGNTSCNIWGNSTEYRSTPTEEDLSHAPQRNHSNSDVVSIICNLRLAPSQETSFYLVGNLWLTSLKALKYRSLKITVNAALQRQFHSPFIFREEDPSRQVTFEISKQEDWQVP
Chain of mouse α11β1 (P09055 21-728 partner limits assumed): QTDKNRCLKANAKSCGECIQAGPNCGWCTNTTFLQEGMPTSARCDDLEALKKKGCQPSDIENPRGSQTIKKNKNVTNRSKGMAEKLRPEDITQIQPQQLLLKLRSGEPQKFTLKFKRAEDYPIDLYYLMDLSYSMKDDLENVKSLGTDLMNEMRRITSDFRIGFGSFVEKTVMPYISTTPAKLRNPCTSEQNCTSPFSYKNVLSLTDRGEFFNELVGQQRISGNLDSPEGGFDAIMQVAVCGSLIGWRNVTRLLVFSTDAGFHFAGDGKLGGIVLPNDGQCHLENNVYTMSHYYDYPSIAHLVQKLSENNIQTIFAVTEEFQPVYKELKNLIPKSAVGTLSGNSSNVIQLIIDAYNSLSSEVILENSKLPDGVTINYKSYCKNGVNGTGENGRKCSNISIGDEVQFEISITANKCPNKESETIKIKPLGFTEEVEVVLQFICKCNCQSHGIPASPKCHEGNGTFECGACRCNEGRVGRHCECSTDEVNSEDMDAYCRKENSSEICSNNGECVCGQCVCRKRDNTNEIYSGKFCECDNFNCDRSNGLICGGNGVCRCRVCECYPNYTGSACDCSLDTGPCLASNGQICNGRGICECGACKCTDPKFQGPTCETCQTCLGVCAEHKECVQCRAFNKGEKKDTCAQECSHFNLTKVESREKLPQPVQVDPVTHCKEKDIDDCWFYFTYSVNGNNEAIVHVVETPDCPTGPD

Molecule	Murine α11β1 ELISA [1]	Off Target [2]	CHO-K1 FACS [3]
5D7: rabbit anti-α11β1 mAb; heavy chain SEQ ID NO: 191, light chain SEQ ID NO: 192 (antibody) heavy: METGLRWLLLVAVLKGVQCQEQLVESGGGLVQPEGSLTLTCKASGFDFSSNAMCWVRQAPGKGLEWIACIYNGDGSTYYASWVNGRFTISKTSSTTVTLQMTSLTAADTATYFCARGLSNWNRDNLWGPGTLVTVSSGQPKAPSVFPLAPCCGDTPSSTVTLGCLVKGYLPEPVTVTWNSGTLTNGVRTFPSVRQSSGLYSLSSVVSVTSSSQPVTCNVAHPATNTKVDKTVAPSTCSKPMCPPPELPGGPSVFIFPPKPKDTLMISRTPEVTCVVVDVSQDDPEVQFTWYINNEQVRTARPPLREQQFNSTIRVVSTLPIAHQDWLRGKEFKCKVHNKALPAPIEKTISKARGQPLEPKVYTMGPPREELSSRSVSLTCMINGFYPSDISVEWEKNGKAEDNYKTTPTVLDSDGSYFLYSKLSVPTSEWQRGDVFTCSVMHEALHNHYTQKSISRSPGK light: MDTRAPTQLLGLLLLWLPGATFAQVLTQTPSSVSAAVGGTATINCQASQSLYSPKNLAWYQQTPGQPPKLLIYSASKLASGVPSRFKGSGSGTQFTLTISGVQCDDAAIYYCQGEFSCTTAACFAFGGGTEVVVKGDPVAPTVLIFPPAADQVATGTVTIVCVANKYFPDVTVTWEVDGTTQTTGIENSKTPQNSADCTYNLSSTLTLTSTQYNSHKEYTCKVTQGTTSVVQSFNRGDC	No	No	Yes
4E1: rabbit anti-α11β1 mAb; heavy chain SEQ ID NO: 195, light chain SEQ ID NO: 196 (antibody) heavy: METGLRWLLLVAVLKGVQCQSLEESGGDLVKPGTSLTLSCTASGFSFGSYYYMCWVRQAPGKGLEWIACIDVGSSGDTYYASWVNGRFTISKTSSTTVTLQMTSLTAADTATYFCARDDTAAGGFGNLELWGPGTLVTVSSGQPKAPSVFPLAPCCGDTPSSTVTLGCLVKGYLPEPVTVTWNSGTLTNGVRTFPSVRQSSGLYSLSSVVSVTSSSQPVTCNVAHPATNTKVDKTVAPSTCSKPMCPPPELPGGPSVFIFPPKPKDTLMISRTPEVTCVVVDVSQDDPEVQFTWYINNEQVRTARPPLREQQFNSTIRVVSTLPIAHQDWLRGKEFKCKVHNKALPAPIEKTISKARGQPLEPKVYTMGPPREELSSRSVSLTCMINGFYPSDISVEWEKNGKAEDNYKTTPTVLDSDGSYFLYSKLSVPTSEWQRGDVFTCSVMHEALHNHYTQKSISRSPGK light: MDTRAPTQLLGLLLLWLPGARCAFELTQTPSSVSEPVGGTVTIKCQASQSIYSYFSWYQQKPGQPPKRLIYQASTLASGVPSRFKGSGSGTDFTLTISDLECADAATYYCQNNYGRGSGSYFFGFGGGTEVVVKGDPVAPTVLIFPPAADQVATGTVTIVCVANKYFPDVTVTWEVDGTTQTTGIENSKTPQNSADCTYNLSSTLTLTSTQYNSHKEYTCKVTQGTTSVVQSFNRGDC	No	No	Yes

More lines, now with the values ahead:

Murine α11β1 ELISA [1]	Off Target [2]	CHO-K1 FACS [3]	Molecule
No	No	Yes	6C7: rabbit anti-α11β1 mAb; heavy chain SEQ ID NO: 185, light chain SEQ ID NO: 186 (antibody) heavy: METGLRWLLLVAVLKGVQCQQQLEESGGGLVKPGGTLTLTCKASGIDFSSYYYMCWVRQAPGKGLELIVCIYTSSGGTWYASWVNGRLTISRSTSLNTVDLKMTSLTAADTATYFCARGVYSGSSDYPTRLDLWGQGTLVTVSLGQPKAPSVFPLAPCCGDTPSSTVTLGCLVKGYLPEPVTVTWNSGTLTNGVRTFPSVRQSSGLYSLSSVVSVTSSSQPVTCNVAHPATNTKVDKTVAPSTCSKPMCPPPELPGGPSVFIFPPKPKDTLMISRTPEVTCVVVDVSQDDPEVQFTWYINNEQVRTARPPLREQQFNSTIRVVSTLPIAHQDWLRGKEFKCKVHNKALPAPIEKTISKARGQPLEPKVYTMGPPREELSSRSVSLTCMINGFYPSDISVEWEKNGKAEDNYKTTPTVLDSDGSYFLYSKLSVPTSEWQRGDVFTCSVMHEALHNHYTQKSISRSPGK light: MDTSTSTALLGLLLLWLTGARCAIEMTQSPPSLSASVGETVRIRCLASEDIYSGISWYQQKPEKPPTLLISGASNLESGVPPRFSGGGSGTDYTLTIGGVQAEDVATYYCLGGYSFSSTGLTFGAGTKVEIKRDPVAPSVLLFPPSKEELTTGTATIVCVANKYFPDVTVTWEVDGTTQTTGIENSKTPQNSADCTYNLSSTLTLTSTQYNSHKEYTCKVTQGTTSVVQSFNRGDC
No	No	Yes	6G4: rabbit anti-α11β1 mAb; heavy chain SEQ ID NO: 181, light chain SEQ ID NO: 182 (antibody) heavy: METGLRWLLLVAVLKGVQCQQQLEESGGGLVKPGGTLTLTCKASGVALNPYYYMCWVRQAPGKGLEWIACVDADSSGSTYYASWAKGRFTISKTSSTTVTLKMTSLTAADTATYFCARESVDYSSVGIGYVHGTDGLWGPGTLVTVSSGQPKAPSVFPLAPCCGDTPSSTVTLGCLVKGYLPEPVTVTWNSGTLTNGVRTFPSVRQSSGLYSLSSVVSVTSSSQPVTCNVAHPATNTKVDKTVAPSTCSKPMCPPPELPGGPSVFIFPPKPKDTLMISRTPEVTCVVVDVSQDDPEVQFTWYINNEQVRTARPPLREQQFNSTIRVVSTLPIAHQDWLRGKEFKCKVHNKALPAPIEKTISKARGQPLEPKVYTMGPPREELSSRSVSLTCMINGFYPSDISVEWEKNGKAEDNYKTTPTVLDSDGSYFLYSKLSVPTSEWQRGDVFTCSVMHEALHNHYTQKSISRSPGK light: MDTRAPTQLLGLLLLWLPGARCADIVVTQTPSSVSAAVGGTVTIKCQASQSISNYFSWYQQKPGQPPKLLIYRASTLASGVPSRFKGSGSGTEFTLTISDLECADAATYYCQCTYGRSNSNFFYGFGGGTEVVVKGDPVAPTVLIFPPAADQVATGTVTIVCVANKYFPDVTVTWEVDGTTQTTGIENSKTPQNSADCTYNLSSTLTLTSTQYNSHKEYTCKVTQGTTSVVQSFNRGDC
No	No	Yes	6F9: rabbit anti-α11β1 mAb; heavy chain SEQ ID NO: 183, light chain SEQ ID NO: 184 (antibody) heavy: METGLRWLLLVAVLKGVQCQSLEESGGDLVKPGASLTLTCTASGSSFSSTYWNCWVRQAPGKGLEWIACINAGSGTTYYASWAKGRFTVSKTSSTTVTLQMTSLTAADTATYFCTRDSDGRFSSGYYFNLWGPGTLVTVSSGQPKAPSVFPLAPCCGDTPSSTVTLGCLVKGYLPEPVTVTWNSGTLTNGVRTFPSVRQSSGLYSLSSVVSVTSSSQPVTCNVAHPATNTKVDKTVAPSTCSKPMCPPPELPGGPSVFIFPPKPKDTLMISRTPEVTCVVVDVSQDDPEVQFTWYINNEQVRTARPPLREQQFNSTIRVVSTLPIAHQDWLRGKEFKCKVHNKALPAPIEKTISKARGQPLEPKVYTMGPPREELSSRSVSLTCMINGFYPSDISVEWEKNGKAEDNYKTTPTVLDSDGSYFLYSKLSVPTSEWQRGDVFTCSVMHEALHNHYTQKSISRSPGK light: MDTRAPTQLLGLLLLWLPGATFAQVLTQTASPVSAAVGGTVTINCQSSQSVYDNNWLAWYQQKPGQPPKLLIDDASKLTSGVSSRFKGSGSGTQFTLTISGVQCDDAATYYCQGAYYSSGWYWAFGGGTEVVVKGDPVAPTVLIFPPAADQVATGTVTIVCVANKYFPDVTVTWEVDGTTQTTGIENSKTPQNSADCTYNLSSTLTLTSTQYNSHKEYTCKVTQGTTSVVQSFNRGDC
